Laboratory results taken from article PMC8136771, “The human tRNA-guanine transglycosylase displays promiscuous nucleobase preference but strict tRNA specificity”.

Target: His-hQTRT1 (catalytic subunit of human TGT);StrepII-hQTRT2 (noncatalytic subunit) (human;human, UniProt Q9BXR0;Q9H974 1-403;1-415, |)
Experiment: denaturing EMSA of covalent intermediate; 9-deazaguanine; RBT buffer: 50 mM Tris-HCl pH 7.5, 20 mM NaCl, 5 mM MgCl2, 2 mM DTT, 37 C, 1-1.5 h, with 9-deazaguanine (25-50 uM); capture-release with poly(U) and ArgSL competitors, urea and guanidine washes
Conditions: protein: recombinant;recombinant; tags: N-terminal His;N-terminal StrepII-SUMO; copies: 1;1; hairpin

His-hQTRT1 (catalytic subunit of human TGT);StrepII-hQTRT2 (noncatalytic subunit), sequence (Q9BXR0 whole entry, chain 1 of 2): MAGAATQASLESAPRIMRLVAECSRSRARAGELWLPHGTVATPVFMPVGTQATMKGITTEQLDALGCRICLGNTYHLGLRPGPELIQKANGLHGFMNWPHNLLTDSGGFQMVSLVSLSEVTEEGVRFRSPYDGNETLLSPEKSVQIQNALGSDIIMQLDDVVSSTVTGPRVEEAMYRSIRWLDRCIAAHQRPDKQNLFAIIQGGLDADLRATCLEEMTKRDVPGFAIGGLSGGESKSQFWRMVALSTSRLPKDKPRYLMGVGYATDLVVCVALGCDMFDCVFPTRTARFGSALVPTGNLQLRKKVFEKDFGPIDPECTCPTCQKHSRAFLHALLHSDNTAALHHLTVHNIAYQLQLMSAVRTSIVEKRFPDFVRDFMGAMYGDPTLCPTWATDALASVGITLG
His-hQTRT1 (catalytic subunit of human TGT);StrepII-hQTRT2 (noncatalytic subunit), sequence (Q9H974 whole entry, chain 2 of 2): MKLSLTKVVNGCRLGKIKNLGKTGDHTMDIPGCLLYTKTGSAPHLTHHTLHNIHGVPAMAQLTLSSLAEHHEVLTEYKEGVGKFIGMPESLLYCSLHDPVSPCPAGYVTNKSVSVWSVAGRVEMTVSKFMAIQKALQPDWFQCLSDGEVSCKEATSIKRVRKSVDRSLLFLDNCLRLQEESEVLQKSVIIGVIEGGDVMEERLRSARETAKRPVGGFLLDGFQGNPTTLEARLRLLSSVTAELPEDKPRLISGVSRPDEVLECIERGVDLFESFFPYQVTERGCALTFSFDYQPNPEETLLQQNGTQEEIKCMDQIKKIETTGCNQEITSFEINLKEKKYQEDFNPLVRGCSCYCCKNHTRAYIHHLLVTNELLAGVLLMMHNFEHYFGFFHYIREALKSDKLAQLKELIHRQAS

Binder	binding result
CCCCGCCUGUCACGCGGGA (structured_RNA) [Aspartyl anticodon stem loop (AspSL)]	binds
ACUGGCCUCCUAAGCCAGG (structured_RNA) [Arginyl anticodon stem loop (ArgSL)]	no binding
